# Test results reported in patent US5863889A, “ICAM-1/LFA-1 short-chain peptides and method of using same” (The University of Kansas, priority 1996, dated 1999).
# Molecular target: T1, LFA-1 (CD11a) (Homo sapiens, UniProt P20701)
# T1 construct: host or cells: Molt3 human T-cell leukemia line
# Assay: Antibody binding assay (FACS): anti-LFA-1 mAb (mouse IgG anti-human CD11a) binding to Molt3 T-cells after peptide incubation
# Type: cell-based
# Conditions: for Fluorescence, % change from control of the medium fluorescence intensity: mAb CD11a, average ± standard error of runs
# Experimental: A 1 ml quantity of the Molt3 inoculum was warmed to 37° C. and transferred by pipette into about 25 ml of a growth culture medium including RPMI 1640 lymphocyte growth medium (Fisher Scientific of St. Louis, Miss.) mixed with 10% by volume fetal calf serum, 100 units/ml penicillin, 100 μg/ml streptomycin and 2 mM glutamine. The inoculated culture was incubated for three to four days at 37° C. under a normal atmosphere having about 5% CO2 added thereto. This culture was capable of being maintained indefinitely by siphoning away the top (non-cell containing) layer and adding 50 ml (or more) of growth culture medium at intervals of three to four days.
# An aqueous buffer solution including Dulbecco's phosphate buffered saline and bovine serum albumin ("-PBS/BSA solution") was prepared for use, and included a mixture of 200 mg KH2 PO4, 1.15 g Na2 HPO4, 100 mg CaCl2, 200 mg KCl, 100 mg MgCl2.6H2 O, 8 g NaCl, with distilled water added to a final 1 liter volume at room temperature, thus, forming a "PBS" solution of pH 7.4 to which was added 0.5% by weight bovine serum albumin.
# An aliquot of about 7 ml was removed from the incubated culture medium and subjected to washing with the PBS/BSA solution. The washing procedure was initiated by placing the aliquot in a centrifuge (Model GT422 from Jouan, distributed Piruscio & Assoc. of Manchester, Miss.) at 1400 rpm for 6.5 minutes to separate the cells from the growth medium. The supernatant fluid was decanted, a 5 ml portion of PBS/BSA solution was transferred by pipette into the pellet, and the mixture was again centrifuged as before. The resulting supernatant fluid was decanted and the cells from the pellet were resuspended in PBS/BSA solution at a titer of about 1×10^6 cells/ml. A 500 μl portion of the solution containing the resuspended cells was placed in a microcentrifuge (Marathon 13K/M from Fisher Scientific of St. Louis, Miss.) at 3500 rpm for six minutes, to provide a washed pellet.
# […] The cells were incubated with the peptide cocktail at 37° C. for 45 minutes.
# After incubation with the peptide cocktail, several antibodies were successively mixed into the incubated solution. A 75 μl portion of anti-IgM solution (a mixture of 10 μl of goat anti-human IgM stock purchased from Jackson Immuno Research of Westgrove, Pa.; and 65 μl of PBS/BSA solution) was added to the peptide cocktail for blocking of nonspecific binding of the secondary antibody. The resulting mixture was incubated for 10 minutes on ice. About 0.1 μg of a primary antibody including mouse IgG anti-human CD11a (purified according to conventional protocols at the University of Kansas Department of Pharmacology and Toxicology from an American Type Culture hybridoma cell line having Catalogue Number HB-202) was next stirred into the mixture, which was then incubated for 30 minutes at room temperature. The incubated mixture was placed in a microcentrifuge at 3500 rpm for six minutes to remove the cells from the mixture, and the cell pellet was washed two times by adding 500 μl aliquots of PBS/BSA solution and microfuging to remove non-bound antibodies from the cells as before. The resulting washed pellet was resuspended in 100 μl of a secondary antibody cocktail including 5 μl of fluorescein isothiocyanate ("FITC") labeled goat anti-mouse IgG (from CALTAG of South San Francisco, Calif.) and 95 μl of PBS/BSA solution. The resulting solution was incubated for 30 minutes at room temperature in the dark.
# The incubated solution including the secondary antibody cocktail was microfuged at 3500 rpm for six minutes to remove the cells from the solution, and the cell pellet was washed two times with 500 μl portions of PBS/BSA solution, as before, to remove unbound antibodies. […]
# T1 sequence (P20701 26-1170): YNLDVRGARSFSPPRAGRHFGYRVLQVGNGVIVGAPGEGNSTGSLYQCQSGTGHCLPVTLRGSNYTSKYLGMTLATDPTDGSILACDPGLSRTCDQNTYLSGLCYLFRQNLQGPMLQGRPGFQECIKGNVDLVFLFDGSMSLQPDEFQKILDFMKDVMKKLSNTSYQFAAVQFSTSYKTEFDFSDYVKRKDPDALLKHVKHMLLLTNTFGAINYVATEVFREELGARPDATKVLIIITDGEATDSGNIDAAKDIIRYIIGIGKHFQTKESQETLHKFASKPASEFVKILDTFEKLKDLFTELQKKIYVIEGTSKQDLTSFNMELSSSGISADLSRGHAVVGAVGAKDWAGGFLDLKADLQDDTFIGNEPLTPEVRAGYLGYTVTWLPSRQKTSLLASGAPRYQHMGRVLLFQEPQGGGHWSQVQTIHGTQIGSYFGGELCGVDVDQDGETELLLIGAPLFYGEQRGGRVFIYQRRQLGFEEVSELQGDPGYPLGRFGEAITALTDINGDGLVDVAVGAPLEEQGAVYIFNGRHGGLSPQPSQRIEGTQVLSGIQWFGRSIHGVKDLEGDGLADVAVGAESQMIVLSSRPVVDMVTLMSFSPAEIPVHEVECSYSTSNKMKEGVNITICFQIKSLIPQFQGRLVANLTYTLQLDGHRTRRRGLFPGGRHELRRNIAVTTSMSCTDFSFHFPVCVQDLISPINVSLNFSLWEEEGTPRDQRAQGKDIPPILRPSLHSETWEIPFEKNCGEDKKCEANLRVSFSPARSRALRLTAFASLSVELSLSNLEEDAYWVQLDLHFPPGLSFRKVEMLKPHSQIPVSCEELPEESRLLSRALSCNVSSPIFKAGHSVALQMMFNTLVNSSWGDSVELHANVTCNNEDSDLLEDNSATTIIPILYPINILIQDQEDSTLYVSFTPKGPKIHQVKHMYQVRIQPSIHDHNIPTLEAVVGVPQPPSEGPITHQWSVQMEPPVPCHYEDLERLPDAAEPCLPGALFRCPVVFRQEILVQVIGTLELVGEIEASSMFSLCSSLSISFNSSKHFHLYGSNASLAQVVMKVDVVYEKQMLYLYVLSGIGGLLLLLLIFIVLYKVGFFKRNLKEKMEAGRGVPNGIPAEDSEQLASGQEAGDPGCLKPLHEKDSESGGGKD
# T1 sequence (P05107 23-769 partner): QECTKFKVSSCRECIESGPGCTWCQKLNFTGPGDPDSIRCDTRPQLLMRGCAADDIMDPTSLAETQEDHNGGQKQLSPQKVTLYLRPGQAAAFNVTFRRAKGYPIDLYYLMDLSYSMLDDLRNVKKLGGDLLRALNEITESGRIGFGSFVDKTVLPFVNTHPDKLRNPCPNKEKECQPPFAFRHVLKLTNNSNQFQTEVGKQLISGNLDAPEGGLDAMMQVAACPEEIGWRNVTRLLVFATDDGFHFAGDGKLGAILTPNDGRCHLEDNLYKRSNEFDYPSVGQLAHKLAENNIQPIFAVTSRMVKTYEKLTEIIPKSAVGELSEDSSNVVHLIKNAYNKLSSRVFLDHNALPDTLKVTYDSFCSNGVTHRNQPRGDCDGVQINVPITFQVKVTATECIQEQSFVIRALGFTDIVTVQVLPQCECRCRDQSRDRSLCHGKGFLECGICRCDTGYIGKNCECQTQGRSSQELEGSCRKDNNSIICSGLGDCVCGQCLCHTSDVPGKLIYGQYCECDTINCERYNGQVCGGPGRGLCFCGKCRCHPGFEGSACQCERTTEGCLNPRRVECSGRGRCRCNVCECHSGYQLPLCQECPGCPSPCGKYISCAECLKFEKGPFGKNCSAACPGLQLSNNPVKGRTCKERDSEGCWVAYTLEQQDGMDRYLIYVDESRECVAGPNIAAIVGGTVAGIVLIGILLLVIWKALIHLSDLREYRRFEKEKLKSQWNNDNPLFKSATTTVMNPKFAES
substance,measurement,setting,value
"SC-3-111: ICAM-1 based short-chain peptide, Sequence ID No. 10 (QTSVSPSKVI)","Fluorescence, % change from control of the medium fluorescence intensity",peptide 2275 μM,-12 ± 4%
same,"Fluorescence, % change from control of the medium fluorescence intensity","peptide 4550 μM, negative = blocking",-29 ± 2%
same,blocking efficiency,"single above-average run (FIGS. 2, 3), peptide 4550 μM, anti-CD11a",51%
same,sample median peak fluorescence intensity value,"single run of FIG. 2 (control 264.41), anti-CD11a",128.74
same,% change of median peak vs control,"single run of FIG. 2, peptide 4550 μM, anti-CD11a",-51%
